According to PMC6850650, “Superfolder mTurquoise2^ox optimized for the bacterial periplasm allows high efficiency in vivo FRET of cell division antibiotic targets” (Molecular Microbiology, 2019):
Substitutions are numbered along the chain they refer to. Names and notes keep the numbering of the source.

B1: FtsL-sfTq2^ox (natural protein, E. coli, UniProt P0AEN4 1-121, looked up)
chain: MISRVTEALSKVKGSMGSHERHALPGVIGDDLLRFGKLPLCLFICIILTAVTVVTTAHHTRLLTAQREQLVLERDALDIEWRNLILEENALGDHSRVERIATEKLQMQHVDPSQENIVVQK
notes: cell division protein FtsL of E. coli; The end of the FP is read from the printed name; source: E. coli, from plasmid, in the cells (FP in the periplasm); not shown: sfTq2^ox, C-terminal, kept
B2: PBP5 (D,D-carboxypeptidase) fused to sfTq2 (donor copy) or mNeongreen (acceptor copy) (enzyme, E. coli, UniProt P0AEB2 30-403, looked up)
chain: DDLNIKTMIPGVPQIDAESYILIDYNSGKVLAEQNADVRRDPASLTKMMTSYVIGQAMKAGKFKETDLVTIGNDAWATGNPVFKGSSLMFLKPGMQVPVSQLIRGINLQSGNDACVAMADFAAGSQDAFVGLMNSYVNALGLKNTHFQTVHGLDADGQYSSARDMALIGQALIRDVPNEYSIYKEKEFTFNGIRQLNRNGLLWDNSLNVDGIKTGHTDKAGYNLVASATEGQMRLISAVMGGRTFKGREAESKKLLTWGFRFFETVNPLKVGKEFASEPVWFGDSDRASLGVDKDVYLTIPRGRMKDLKASYVLNSSELHAPLQKNQVVGTINFQLDGKTIEQRPLVVLQEIPEGNFFGKIIDYIKLMFHHWFG
notes: PBP5 (D,D-carboxypeptidase, encoded by dacA) of E. coli; Self-association measured between two differently fused copies (sfTq2-PBP5 and mNG-PBP5); PBP5's own signal peptide is probably replaced by that of DsbA (surmised); also called sfTq2-PBP5; DsbA^ss-FP-PBP5; source: E. coli CS109 ΔdacA, from plasmid, in the periplasm of the cells; not shown: sfTq2 (on the donor copy), N-terminal, kept; …
B3: PBP5^S44G (inactive mutant) fused to sfTq2 (donor copy) or mNeongreen (acceptor copy) (enzyme, E. coli, UniProt P0AEB2 30-403, looked up)
chain: B2 chain with S44G
notes: PBP5 (D,D-carboxypeptidase, encoded by dacA) of E. coli with S44G; Self-association measured between two differently fused copies; source: E. coli CS109 ΔdacA, from plasmid, in the periplasm of the cells; not shown: sfTq2 (on the donor copy), N-terminal, kept; mNeongreen (on the acceptor copy), N-terminal, kept
B4: FtsB-sfTq2^ox (natural protein, E. coli, UniProt P0A6S5 1-103, looked up)
chain: MGKLTLLLLAILVWLQYSLWFGKNGIHDYTRVNDDVAAQQATNAKLKARNDQLFAEIDDLNGGQEALEERARNELSMTRPGETFYRLVPDASKRAQSAGQNNR
notes: cell division protein FtsB of E. coli; The end of the FP is read from the printed name FtsB-sfTq2^ox; source: E. coli, from plasmid, in the cells (FP in the periplasm); not shown: sfTq2^ox, C-terminal, kept

Key:
Assay in all cases: FRET or BRET; in vivo in the periplasm of E. coli; donor sfTq2 or sfTq2^ox, acceptor mNG, each fused to one partner; emission spectra taken with a fluorometer and unmixed, EfA from sensitised emission; PBP5 dimerisation in CS109 ΔdacA, controls in LMC500 and CS109 ΔdacA
[1] = target: T1, FtsB-mNG (E. coli, UniProt P0A6S5 1-103); conditions: partners not purified
T1 construct: cell division protein FtsB of E. coli; The end of the FP is read from the printed name; also called wild-type FtsB-mNG; source: E. coli, from plasmid, in the cells (FP in the periplasm); not shown: mNeongreen, C-terminal, kept
T1 sequence (looked up): B4 chain

[2] = target: the molecule itself
[3] = target: T2, FtsL-mNG (E. coli, UniProt P0AEN4 1-121); conditions: partners not purified
T2 construct: cell division protein FtsL of E. coli; The end of the FP is read from the printed name FtsL-mNG; source: E. coli, from plasmid, in the cells (FP in the periplasm); not shown: mNeongreen, C-terminal, kept
T2 sequence (looked up): B1 chain

Binder	EfA (FRET efficiency) [2] [%]	further results
B1	–	EfA (FRET efficiency) [1]: 15.6%
B2	4.2	–
B3	8.8	–
B4	–	EfA (FRET efficiency) [3]: 19.2%
